Results on 21 molecules are retold here after US20260345804 (published 2026).

Holding throughout (test): SPR, 25C
(In general: In SPR one partner is held on a chip, and binding of the other changes the refractive index at the surface.)

The target in experiment [1] is huPD1-ECD_Fc-knob/hole (P1AD9704) (human).
For experiment [2] the target is unchanged. This is another data set of the same source.
Experiment [3] has the same target. This is another data set of the same source.
Experiment [4] has as its target T1, human IL2v G4S avi his (P1AG0879) (human).
T1 chain: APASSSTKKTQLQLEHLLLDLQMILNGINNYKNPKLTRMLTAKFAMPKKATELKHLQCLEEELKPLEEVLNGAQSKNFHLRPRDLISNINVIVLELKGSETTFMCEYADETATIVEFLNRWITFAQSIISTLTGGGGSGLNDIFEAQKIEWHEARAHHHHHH

Changes are numbered by the printed parent chain. Like-named read-outs stand apart in the source and are kept apart here.

B1: P1AG9606 PD1 IgG-IL2v aIL2 MT204 scFv-PQARK (antibody)
chain 1: EVQLLESGGGLVQPGGSLRLSCAASGFSFSSYTMSWVRQAPGKGLEWVATISGGGRDIYYPDSVKGRFTISRDNSKNTLYLQMNSLRAEDTAVYYCVLLTGRVYFALDSWGQGTLVTVSSASTKGPSVFPLAPSSKSTSGGTAALGCLVKDYFPEPVTVSWNSGALTSGVHTFPAVLQSSGLYSLSSVVTVPSSSLGTQTYICNVNHKPSNTKVDKKVEPKSCDKTHTCPPCPAPEAAGGPSVFLFPPKPKDTLMISRTPEVTCVVVDVSHEDPEVKFNWYVDGVEVHNAKTKPREEQYNSTYRVVSVLTVLHQDWLNGKEYKCKVSNKALGAPIEKTISKAKGQPREPQVCTLPPSRDELTKNQVSLSCAVKGFYPSDIAVEWESNGQPENNYKTTPPVLDSDGSFFLVSKLTVDKSRWQQGNVFSCSVMHEALHNHYTQKSLSLSPG
chain 2: DIVMTQSPDSLAVSLGERATINCKASESVDTSDNSFIHWYQQKPGQSPKLLIYRSSTLESGVPDRFSGSGSGTDFTLTISSLQAEDVAVYYCQQNYDVPWTFGQGTKVEIKRTVAAPSVFIFPPSDEQLKSGTASVVCLLNNFYPREAKVQWKVDNALQSGNSQESVTEQDSKDSTYSLSSTLTLSKADYEKHKVYACEVTHQGLSSPVTKSFNRGEC
modifications: PD1-binding arm; immunoconjugate, knob chain SEQ59 carries masked IL2v
As usually defined, the Kd is a measure of binding affinity in units of concentration. Read a high Kd as a looser complex. On to B1, for which, in experiment [1], binding was characterised by a dissociation constant (Kd) of 0.19 nM.

B2: P1AA6888 one-shot humanized PD1-0103 (antibody)
chain 1: not shown
chain 2: B1 chain 2
In the case of B2, the values for the Kd in experiment [2] and in experiment [3] were 0.3 nM and 0.2 nM, respectively.

B3: P1AI0357 PD1-1030-VH_I58T (antibody, V domains shown)
VH: EVQLLESGGGLVQPGGSLRLSCAASGFSFSSYTMSWVRQAPGKGLEWVATISGGGRDTYYPDSVKGRFTISRDNSKNTLYLQMNSLRAEDTAVYYCVLLTGRVYFALDSWGQGTLVTVSS
VL: DIVMTQSPDSLAVSLGERATINCKASESVDTSDNSFIHWYQQKPGQSPKLLIYRSSTLESGVPDRFSGSGSGTDFTLTISSLQAEDVAVYYCQQNYDVPWTFGQGTKVEIKR
Turning to B3, the Kd in experiment [2] stood at 0.2 nM.

B4: P1AH4159 PD1-376_VL2_7_VH4 (antibody, V domains shown)
VH: B3 VH with A49S, T50A, T58I
VL: B3 VL with S55A, L58Q
With B4, in experiment [3], the Kd was found to be 0.2 nM.

B5: P1AI0360 PD1-1030-VH_Y60F_D62E (antibody, V domains shown)
VH: B3 VH with T58I, Y60F, D62E
VL: B3 VL
With B5, the Kd in experiment [2] was 0.3 nM.

B6: P1AI1651 PD1-376_VL2_VH4_P61A (antibody, V domains shown)
VH: B3 VH with A49S, T50A, T58I, P61A
VL: B3 VL with S55A
Molecule B6 showed a Kd in experiment [1] of 0.114 nM.

B7: P1AI0359 PD1-1030-VH_P61A (antibody, V domains shown)
VH: B3 VH with T58I, P61A
VL: B3 VL
B7: the Kd in experiment [2] was determined as 0.2 nM.

B8: P1AH4158 PD1-376_VL7_VH4 (antibody, V domains shown)
VH: B3 VH with A49S, T50A, T58I
VL: B3 VL with S55E, L58Q
In experiment [3], B8 returned a Kd of 1.5 nM.

B9: P1AH4161 PD1-376_VL2_VH1_2_3_4 (antibody, V domains shown)
VH: B3 VH with L5V, S28T, T33A, A49S, T50A, T58I
VL: B3 VL with S55A
B9: binding in experiment [3] was characterised by a dissociation constant (Kd) of 0.4 nM.

B10: P1AI1652 PD1-376_VL2_VH4_Y60F_D62E (antibody, V domains shown)
VH: B3 VH with A49S, T50A, T58I, Y60F, D62E
VL: B3 VL with S55A
B10 had a Kd in experiment [1] of 0.162 nM.

B11: P1AI1650 PD1-376_VL2_VH4_I58T_P61A (antibody, V domains shown)
VH: B3 VH with A49S, T50A, P61A
VL: B3 VL with S55A
As for B11, the Kd in experiment [1] was 0.127 nM.

B12: P1AI0356 PD1-1030-VH_I58L_D62E (antibody, V domains shown)
VH: B3 VH with T58L, D62E
VL: B3 VL
As to B12, binding in experiment [2] was put at a Kd of 0.2 nM.

B13: P1AH4157 PD1-376_VL2_VH4 (antibody, V domains shown)
VH: B3 VH with A49S, T50A, T58I
VL: B3 VL with S55A
B13: the Kd in experiment [1] was determined as 0.126 nM; in experiment [3] it was 0.2 nM.

B14: P1AI0358 PD1-1030-VH_I58T_P61A (antibody, V domains shown)
VH: B3 VH with P61A
VL: B3 VL
In experiment [2], B14 returned a Kd of 0.3 nM.

B15: P1AI1648 PD1-376_VL2_VH4_I58L_D62E (antibody, V domains shown)
VH: B3 VH with A49S, T50A, T58L, D62E
VL: B3 VL with S55A
For the molecule B15, the Kd in experiment [1] is 0.144 nM.

B16: P1AH4160 PD1-376_VL7_VH1_2_4 (antibody, V domains shown)
VH: B3 VH with L5V, S28T, A49S, T50A, T58I
VL: B3 VL with S55E, L58Q
In turn, B16 registered a Kd in experiment [3] of 1.2 nM.

B17: P1AI1649 PD1-376_VL2_VH4_I58T (antibody, V domains shown)
VH: B3 VH with A49S, T50A
VL: B3 VL with S55A
For the molecule B17, in experiment [1], the Kd was found to be 0.111 nM.

B18: P1AF7506 OA MT204 IgG PG LALA (antibody, V domains shown)
VH: EVQLVESGGGLVQPGGSLRLSCAASGFTFSSYTLAWVRQAPGKGLEWVAAIDSSSYTYSPDTVRGRFTISRDNAKNSLYLQMNSLRAEDTAVYYCARDSNWDALDYWGQGTTVTVSS
VL: DIQMTQSPSSLSASVGDRVTITCKASQNVGTNVGWYQQKPGKAPKALIYSASFRYSGVPSRFSGSGSGTDFTLTISSLQPEDFATYYCQQYYTYPYTFGGGTKVEIKR
In experiment [4], B18 had a Kd of 0.27 nM.

B19: P1AH2050 MT204_VL1-combo VH2 & VH6 IgG PG LALA (antibody, V domains shown)
VH: B18 VH with R64K, A74S, S77T
VL: B18 VL with K24R, N28G
As to B19, the Kd in experiment [4] stood at 0.427 nM.

B20: P1AH2051 MT204_VL1a-combo VH2 & VH6 IgG PG LALA (antibody, V domains shown)
VH: B18 VH with R64K, A74S, S77T
VL: B18 VL with K24R, N28G, R54L
In experiment [4], B20 showed a Kd of 0.101 nM.

B21: P1AH2052 MT204_VL1b-combo VH2 & VH6 IgG PG LALA (antibody, V domains shown)
VH: B18 VH with R64K, A74S, S77T
VL: B18 VL with K24R, N28G, A46L, R54L
In turn, B21 returned a Kd in experiment [4] of 0.995 nM.
